Assay results: patent publication US20190135911A1, “TREATING RESPIRATORY DISEASES BY TARGETING INTERLEUKIN 4 INDUCED 1 (IL4I1)” (Five Prime Therapeutics, Inc., priority 2016, published 2019)
“Also recorded” adds a separate entry of the source.

Test system: moDCs in co-culture with bronchial epithelial cells from COPD patients
Experiment: moDC / COPD bronchial epithelial cell co-culture treated with IL4I1, DC mRNA levels (Quantigene multiplex panel)
Format: cell-based, human
Conditions: IL4I1 serially diluted into basolateral media; 24 hr BEC pre-incubation, 24 hr co-culture with DCs (COPD donor #AB63); normalized to GAPDH; FIG. 2
Description: To differentiate airway epithelium in vitro, healthy smoker derived bronchial epithelial cells (Lonza lot #7F3833, 489, 237440, 899; Epithelix lot #13086) and COPD patient derived bronchial epithelial cells (Lonza lot #3313, 498, 3207, 3379; Epithelix lot #AB63, 472) were expanded according to the Lonza protocol with the following modification: the cells were subjected to two passages in Lonza BEBM media with supplements as reported in Widdicombe et al. (BioTechniques 39:249-255, August 2005). Cells were seeded onto collagen coated 0.4 um 96 transwell plates at 15,000 cells per 75 μl of the above media, and 235 μl of the same media was added to the basolateral receiver plate. After 3 days (with a single apical media change of the same volume), the apical media was completely removed in an airlift. To induce differentiation the cells were then cultured for 18 days with PneumaCult-ALI Medium (StemCell Technologies, #05001).
DC were generated as follows. […] After 48 hrs of cell culture, DC were lysed and mRNA levels were measured by microarray. […]
Co-cultures were initiated as described above. […] After 24 hr coculture the DCs were lysed and mRNA levels were measured with an Affymetrix Quantigene multiplex panel on a FlexMap 3D instrument. For each gene the relative luminescence was normalized to a housekeeper gene GAPDH.

B1: IL4I1: Human IL4I1 protein (R&D Systems #5684-AO) added to the co-culture media (protein, UniProt Q96RQ9 22-567, looked up)
L-amino-acid oxidase: QDWKAERSQDPFEKCMQDPDYEQLLKVVTWGLNRTLKPQRVIVVGAGVAGLVAAKVLSDAGHKVTILEADNRIGGRIFTYRDQNTGWIGELGAMRMPSSHRILHKLCQGLGLNLTKFTQYDKNTWTEVHEVKLRNYVVEKVPEKLGYALRPQEKGHSPEDIYQMALNQALKDLKALGCRKAMKKFERHTLLEYLLGEGNLSRPAVQLLGDVMSEDGFFYLSFAEALRAHSCLSDRLQYSRIVGGWDLLPRALLSSLSGLVLLNAPVVAMTQGPHDVHVQIETSPPARNLKVLKADVVLLTASGPAVKRITFSPPLPRHMQEALRRLHYVPATKVFLSFRRPFWREEHIEGGHSNTDRPSRMIFYPPPREGALLLASYTWSDAAAAFAGLSREEALRLALDDVAALHGPVVRQLWDGTGVVKRWAEDQHSQGGFVVQPPALWQTEKDDWTVPYGRIYFAGEHTAYPHGWVETAVKSALRAAIKINSRKGPASDTASPEGHASDMEGQGHVHGVASSPSHDLAKEEGSHPPVQGQLSLQNTTHTRTSH
  mRNA expression of dendritic cell genes (CXCL5, PTGES, S100A8, SERPINB2, THBS1): enhanced mRNA expression; also recorded: further enhances the expression
